Results: patent EP4818204A1 (Nanjing Leads Biolabs Co., Ltd., dated 2026)
Like-named read-outs stand apart in the source and are kept apart here.

Experiments:
[1] = target: T1, human Activin A protein (human, UniProt P08476 311-426); experiment: ELISA, coated protein, antibody at 4 µg/mL
T1 construct: Bought; Activin A is by nature a dimer of inhibin beta A chains
T1 sequence (looked up): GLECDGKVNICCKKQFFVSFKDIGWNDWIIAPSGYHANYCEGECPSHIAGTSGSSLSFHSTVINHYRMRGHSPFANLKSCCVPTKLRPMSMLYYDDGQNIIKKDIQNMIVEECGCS

[2] = target: T2, human BMP2 protein (human, UniProt P12643 283-396); experiment: ELISA, coated protein, antibody at 4 µg/mL
T2 construct: Bought

[3] = target: T3, human Activin B protein (human, UniProt P09529 293-407); experiment: ELISA, coated protein, antibody at 4 µg/mL
T3 construct: Bought; Activin B is by nature a dimer of inhibin beta B chains
T3 sequence (looked up): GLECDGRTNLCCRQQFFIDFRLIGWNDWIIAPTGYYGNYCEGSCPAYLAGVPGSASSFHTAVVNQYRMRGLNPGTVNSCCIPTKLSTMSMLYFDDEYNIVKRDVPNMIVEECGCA

[4] = target: T1, human Activin A protein; experiment: ELISA, coated protein, antibody at 4 µg/mL; remark: listed apart in the source
[5] = target: T4, human GDF11 protein (human, UniProt O95390 299-407); experiment: ELISA, coated protein, antibody at 4 µg/mL
T4 construct: Bought
T4 sequence (looked up): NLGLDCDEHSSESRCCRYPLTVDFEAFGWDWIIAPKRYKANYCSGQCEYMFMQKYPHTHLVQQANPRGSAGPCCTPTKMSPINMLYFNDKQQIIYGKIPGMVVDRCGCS

[6] = target: T5, human GDNF protein (human, UniProt P39905 78-211); experiment: ELISA, coated protein, antibody at 4 µg/mL
T5 construct: Bought
T5 sequence (looked up): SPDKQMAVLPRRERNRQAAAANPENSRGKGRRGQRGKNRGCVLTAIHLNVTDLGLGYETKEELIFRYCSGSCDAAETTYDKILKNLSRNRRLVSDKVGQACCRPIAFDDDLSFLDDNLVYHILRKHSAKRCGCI

[7] = target: T2, human BMP2 protein; experiment: ELISA, coated protein, antibody at 4 µg/mL; remark: listed apart in the source
[8] = target: T6, Human GDF15 protein (human, UniProt Q99988 197-308); experiment: ELISA, coated protein, antibody at 4 µg/mL
T6 construct: Natural GDF15 is said to be a disulfide-linked homodimer; also called Human-GDF15-his
T6 sequence: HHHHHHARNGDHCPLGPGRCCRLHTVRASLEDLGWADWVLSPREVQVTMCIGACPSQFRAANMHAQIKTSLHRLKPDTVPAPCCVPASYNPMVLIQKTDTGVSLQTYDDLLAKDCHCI

[9] = target: T7, human GDF1 protein (human, UniProt P27539 254-372, limits assumed); experiment: ELISA, coated protein, antibody at 4 µg/mL
T7 construct: Bought
T7 sequence (looked up): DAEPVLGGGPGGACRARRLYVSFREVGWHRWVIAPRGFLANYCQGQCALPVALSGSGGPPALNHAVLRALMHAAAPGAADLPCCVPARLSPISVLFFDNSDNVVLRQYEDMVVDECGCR

[10] = target: T3, human Activin B protein; experiment: ELISA, coated protein, antibody at 4 µg/mL; remark: listed apart in the source
[11] = target: human GDF8 protein (human) (UniProt O14793); experiment: ELISA, coated protein, antibody at 4 µg/mL
[12] = target: T8, human BMP4 protein (human, UniProt P12644 293-408); experiment: ELISA, coated protein, antibody at 4 µg/mL
T8 construct: Bought
T8 sequence (looked up): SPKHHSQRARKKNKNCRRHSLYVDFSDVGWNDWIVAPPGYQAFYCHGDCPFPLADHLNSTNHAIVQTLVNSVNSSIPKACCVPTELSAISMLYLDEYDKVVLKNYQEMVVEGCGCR

[13] = target: T9, human GDF2 protein (human, UniProt Q9UK05 320-429); experiment: ELISA, coated protein, antibody at 4 µg/mL
T9 construct: Bought
T9 sequence (looked up): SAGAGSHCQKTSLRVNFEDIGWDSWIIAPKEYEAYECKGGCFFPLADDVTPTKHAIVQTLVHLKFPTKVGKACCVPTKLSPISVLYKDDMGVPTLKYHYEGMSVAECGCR

[14] = target: T10, human GFRα1 protein (human, UniProt P56159 25-429, limits assumed); experiment: ELISA, coated protein, antibody at 4 µg/mL
T10 construct: Bought
T10 sequence (looked up): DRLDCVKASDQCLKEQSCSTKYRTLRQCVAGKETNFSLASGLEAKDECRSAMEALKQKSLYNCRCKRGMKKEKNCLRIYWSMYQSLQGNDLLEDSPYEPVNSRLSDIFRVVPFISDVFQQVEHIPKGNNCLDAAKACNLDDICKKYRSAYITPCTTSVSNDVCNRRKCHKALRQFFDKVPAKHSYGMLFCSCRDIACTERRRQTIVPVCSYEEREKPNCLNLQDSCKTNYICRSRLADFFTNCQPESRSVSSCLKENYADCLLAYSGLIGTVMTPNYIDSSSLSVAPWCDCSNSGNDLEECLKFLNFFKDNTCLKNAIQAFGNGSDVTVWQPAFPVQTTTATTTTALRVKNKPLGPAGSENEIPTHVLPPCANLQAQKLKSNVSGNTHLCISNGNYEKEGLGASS

[15] = target: human AMH protein (human) (UniProt P03971); experiment: ELISA, coated protein, antibody at 4 µg/mL
[16] = target: T11, human GDF3 protein (human, UniProt Q9NR23 251-364, limits assumed); experiment: ELISA, coated protein, antibody at 4 µg/mL
T11 construct: Bought
T11 sequence (looked up): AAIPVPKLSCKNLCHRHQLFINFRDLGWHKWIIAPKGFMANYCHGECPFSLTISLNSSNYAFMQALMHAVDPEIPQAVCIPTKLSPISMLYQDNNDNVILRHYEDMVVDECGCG

[17] = target: T12, human TGFβ1 protein (human, UniProt P01137 279-390); experiment: ELISA, coated protein, antibody at 4 µg/mL
T12 construct: Bought

[18] = target: T13, human FcRn protein (human, UniProt P55899 24-297); experiment: BLI (Octet RED96e), FcRn on SA sensor, antibody as analyte, binding and dissociation at pH 6.0, 1:1 model
T13 construct: Bought, loaded on a streptavidin (SA) sensor; FcRn is by nature a heterodimer with beta-2-microglobulin

[19] = target: T1, human Activin A protein; experiment: ELISA, coated protein, antibody at 4 µg/mL; remark: listed apart in the source
[20] = target: T4, human GDF11 protein; experiment: ELISA, coated protein, antibody at 4 µg/mL; remark: listed apart in the source
[21] = target: T2, human BMP2 protein; experiment: ELISA, coated protein, antibody at 4 µg/mL; remark: listed apart in the source
[22] = target: T7, human GDF1 protein; experiment: ELISA, coated protein, antibody at 4 µg/mL; remark: listed apart in the source
[23] = target: T3, human Activin B protein; experiment: ELISA, coated protein, antibody at 4 µg/mL; remark: listed apart in the source
[24] = target: T8, human BMP4 protein; experiment: ELISA, coated protein, antibody at 4 µg/mL; remark: listed apart in the source
[25] = target: T9, human GDF2 protein; experiment: ELISA, coated protein, antibody at 4 µg/mL; remark: listed apart in the source
[26] = target: T10, human GFRα1 protein; experiment: ELISA, coated protein, antibody at 4 µg/mL; remark: listed apart in the source
[27] = target: T11, human GDF3 protein; experiment: ELISA, coated protein, antibody at 4 µg/mL; remark: listed apart in the source
[28] = target: T12, human TGFβ1 protein; experiment: ELISA, coated protein, antibody at 4 µg/mL; remark: listed apart in the source
[29] = target: T1, human Activin A protein; experiment: ELISA, coated protein
[30] = target: T4, human GDF11 protein; experiment: ELISA, coated protein
[31] = target: T2, human BMP2 protein; experiment: ELISA, coated protein
[32] = target: T7, human GDF1 protein; experiment: ELISA, coated protein
[33] = target: T3, human Activin B protein; experiment: ELISA, coated protein
[34] = target: T8, human BMP4 protein; experiment: ELISA, coated protein
[35] = target: T9, human GDF2 protein; experiment: ELISA, coated protein
[36] = target: T10, human GFRα1 protein; experiment: ELISA, coated protein
[37] = target: T11, human GDF3 protein; experiment: ELISA, coated protein
[38] = target: T12, human TGFβ1 protein; experiment: ELISA, coated protein

T2 sequence (P12643 283-396 limits assumed): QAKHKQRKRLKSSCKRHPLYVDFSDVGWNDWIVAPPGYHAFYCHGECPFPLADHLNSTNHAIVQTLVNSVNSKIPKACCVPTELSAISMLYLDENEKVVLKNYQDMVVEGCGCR
T12 sequence (P01137 279-390 limits assumed): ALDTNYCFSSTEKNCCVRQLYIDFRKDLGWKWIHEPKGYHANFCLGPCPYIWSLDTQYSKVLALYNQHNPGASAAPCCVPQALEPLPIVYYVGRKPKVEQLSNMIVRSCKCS
T13 sequence (P55899 24-297 limits assumed, form in doubt): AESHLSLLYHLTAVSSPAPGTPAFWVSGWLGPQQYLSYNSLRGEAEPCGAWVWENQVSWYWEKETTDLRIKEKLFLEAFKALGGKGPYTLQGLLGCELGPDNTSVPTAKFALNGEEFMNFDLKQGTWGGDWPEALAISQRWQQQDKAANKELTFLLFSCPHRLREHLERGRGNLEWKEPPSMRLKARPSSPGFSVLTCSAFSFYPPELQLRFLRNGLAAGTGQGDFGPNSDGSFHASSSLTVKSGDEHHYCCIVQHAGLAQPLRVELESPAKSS

Ponsegromab (antibody)
OD value (OD 450 nm-620 nm) [1]: 0.0698
OD value (OD 450 nm-620 nm) [2]: 0.265
OD value (OD 450 nm-620 nm) [3]: 0.187
OD value (OD 450 nm-620 nm) [4]: 0.0863
OD value (OD 450 nm-620 nm) [5]: 0.0375
OD value (OD 450 nm-620 nm) [6]: 1.21
OD value (OD 450 nm-620 nm) [7]: 0.227
OD value (OD 450 nm-620 nm) [8]: 3.33
OD value (OD 450 nm-620 nm) [9]: 0.0818
OD value (OD 450 nm-620 nm) [10]: 0.156
OD value (OD 450 nm-620 nm) [11]: 0.0755
OD value (OD 450 nm-620 nm) [12]: 0.0639
OD value (OD 450 nm-620 nm) [13]: 0.555
OD value (OD 450 nm-620 nm) [14]: 0.124
OD value (OD 450 nm-620 nm) [15]: 0.0754
OD value (OD 450 nm-620 nm) [16]: 0.0676
OD value (OD 450 nm-620 nm) [17]: 0.129

B1: hu19C4C7-YTE (antibody, human IgG1, kappa)
heavy: QVQLVQSGAEVKKPGSSVKVSCKASGYSFTGYIMNWVRQAPGQSLEWMGDIDPYYGGPNYNQKFQGRVTITVDKSTSTAYMELSSLRSEDTAVYYCSRRDYNYGSFAYWGQGTLVTVSSASTKGPSVFPLAPSSKSTSGGTAALGCLVKDYFPEPVTVSWNSGALTSGVHTFPAVLQSSGLYSLSSVVTVPSSSLGTQTYICNVNHKPSNTKVDKKVEPKSCDKTHTCPPCPAPEAAGAPSVFLFPPKPKDTLYITREPEVTCVVVDVSHEDPEVKFNWYVDGVEVHNAKTKPREEQYNSTYRVVSVLTVLHQDWLNGKEYKCKVSNKALPAPIEKTISKAKGQPREPQVYTLPPSREEMTKNQVSLTCLVKGFYPSDIAVEWESNGQPENNYKTTPPVLDSDGSFFLYSKLTVDKSRWQQGNVFSCSVMHEALHNHYTQKSLSLSPGK
light: QIVLTQSPATLSLSPGERATLSCRASSSVNYMHWYQQKPGQAPRPLIYATSNLATGIPARFSGSGSGTDYTLTISSLEPEDFAVYYCQQWSDNPPTFGQGTKLEIKRTVAAPSVFIFPPSDEQLKSGTASVVCLLNNFYPREAKVQWKVDNALQSGNSQESVTEQDSKDSTYSLSSTLTLSKADYEKHKVYACEVTHQGLSSPVTKSFNRGEC
notes: Hu19C4C7 with human IgG1 constant region carrying L234A, L235A, G237A, M252Y, S254T, T256E (EU numbering); also called hu19C4C7-YTE-IgG1-mut
Kd [18]: 2.89 nM
koff [18]: 0.00257 s⁻¹
kon [18]: 889000 M⁻¹ s⁻¹
OD value (OD 450 nm-620 nm) [6]: 0.296
OD value (OD 450 nm-620 nm) [8]: 2.39
OD value (OD 450 nm-620 nm) [11]: 0.0508
OD value (OD 450 nm-620 nm) [15]: 0.0409
OD value [19]: 0.0582 OD 450 nm-620 nm
OD value [20]: 0.0709 OD 450 nm-620 nm
OD value [21]: 0.0973 OD 450 nm-620 nm
OD value [22]: 0.144 OD 450 nm-620 nm
OD value [23]: 0.114 OD 450 nm-620 nm
OD value [24]: 0.0595 OD 450 nm-620 nm
OD value [25]: 0.0643 OD 450 nm-620 nm
OD value [26]: 0.132 OD 450 nm-620 nm
OD value [27]: 0.0907 OD 450 nm-620 nm
OD value [28]: 0.114 OD 450 nm-620 nm
binding result [29]: no binding (tested: 4 µg/mL)
binding result [30]: no binding (tested: 4 µg/mL)
binding result [31]: no binding (tested: 4 µg/mL)
binding result [32]: no binding (tested: 4 µg/mL)
binding result [33]: no binding (tested: 4 µg/mL)
binding result [34]: no binding (tested: 4 µg/mL)
binding result [35]: no binding (tested: 4 µg/mL)
binding result [36]: no binding (tested: 4 µg/mL)
binding result [37]: no binding (tested: 4 µg/mL)
binding result [38]: no binding (tested: 4 µg/mL)
